Consider 2 molecules from patent US20140370021A1 (Xencor, published 2014).

The experiment has as its target T1, extracellular region of human V158 FcγRIIIa fused with glutathione S-transferase (GST) (human, UniProt P08637 17-208).
T1 construct: extracellular domain; also called human Val158 FcγRIIIa; not shown: glutathione S-transferase (GST) tag
Put plainly: AlphaScreen competition as in Example 2 (biotinylated WT antibody on donor beads, GST-tagged human V158 FcγRIIIa on acceptor beads); Fc variants in the context of rituximab.

T1 sequence (P08637 17-208 F176V): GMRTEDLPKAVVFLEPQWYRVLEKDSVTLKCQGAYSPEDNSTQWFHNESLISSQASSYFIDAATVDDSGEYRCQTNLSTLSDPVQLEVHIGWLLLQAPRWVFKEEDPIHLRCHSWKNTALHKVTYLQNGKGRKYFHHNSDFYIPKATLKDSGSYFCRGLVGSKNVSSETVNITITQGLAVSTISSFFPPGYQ

B1: V264I (antibody)
heavy: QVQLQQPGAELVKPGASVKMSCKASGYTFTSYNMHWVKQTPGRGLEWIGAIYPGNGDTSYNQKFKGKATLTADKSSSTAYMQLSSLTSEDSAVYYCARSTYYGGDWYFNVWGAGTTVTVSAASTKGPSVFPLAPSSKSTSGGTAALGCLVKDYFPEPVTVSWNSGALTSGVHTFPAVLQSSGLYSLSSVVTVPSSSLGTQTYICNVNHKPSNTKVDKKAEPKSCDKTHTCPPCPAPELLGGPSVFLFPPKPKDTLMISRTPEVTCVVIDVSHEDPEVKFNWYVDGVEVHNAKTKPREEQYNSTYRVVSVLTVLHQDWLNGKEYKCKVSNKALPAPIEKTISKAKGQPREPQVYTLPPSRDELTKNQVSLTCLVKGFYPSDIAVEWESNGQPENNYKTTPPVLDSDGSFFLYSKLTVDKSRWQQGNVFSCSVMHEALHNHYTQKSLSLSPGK
light: QIVLSQSPAILSASPGEKVTMTCRASSSVSYIHWFQQKPGSSPKPWIYATSNLASGVPVRFSGSGSGTSYSLTISRVEAEDAATYYCQQWTSNPPTFGGGTKLEIKRTVAAPSVFIFPPSDEQLKSGTASVVCLLNNFYPREAKVQWKVDNALQSGNSQESVTEQDSKDSTYSLSSTLTLSKADYEKHKVYACEVTHQGLSSPVTKSFNRGEC
modifications: N297 glycan, not carried by the letters.
notes: also called rituximab V264I; copies: 2 + 2
As to B1, the “IC50 (read off the curve)” value was around 5 nM.

B2: rituximab V264I/I332E (antibody, human IgG1, kappa)
heavy: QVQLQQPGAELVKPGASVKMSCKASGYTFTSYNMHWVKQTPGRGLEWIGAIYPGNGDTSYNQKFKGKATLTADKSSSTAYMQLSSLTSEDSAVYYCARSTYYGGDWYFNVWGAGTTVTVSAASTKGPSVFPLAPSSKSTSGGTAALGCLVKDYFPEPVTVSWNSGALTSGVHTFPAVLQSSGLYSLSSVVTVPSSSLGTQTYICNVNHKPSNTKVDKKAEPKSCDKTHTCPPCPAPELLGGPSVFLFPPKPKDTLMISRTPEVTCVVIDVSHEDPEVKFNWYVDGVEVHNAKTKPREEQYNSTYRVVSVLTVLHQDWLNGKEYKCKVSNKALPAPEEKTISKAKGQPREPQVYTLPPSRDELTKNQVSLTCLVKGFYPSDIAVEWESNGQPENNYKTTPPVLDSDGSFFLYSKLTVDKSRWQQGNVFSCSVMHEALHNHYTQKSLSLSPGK
light: B1 light
On to B2, for which the “IC50 (read off the curve)” value was around 0.4 nM.
